# Experiment: yeast display, Sf9 membrane polyspecificity reagent, FACS + sequencing; frameworks hold sequencing errors
# Procedure, shortened: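 Nanobodies from a synthetic yeast display library (Saccharomyces cerevisiae BJ5465), induced 36–48 hours with galactose, were stained 1 hour at 4 °C with 10% biotinylated, detergent-solubilized Sf9 membrane reagent, enriched on streptavidin microbeads, then FACS-sorted. Anti-HA (expression) and streptavidin (reagent binding) fluorescence set low and high (top ~1%) gates. Polyreactivity labels come from the gate of origin. Genes were colony-PCR amplified, MiSeq 2 × 250 sequenced and filtered by CDR length.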
row,Sequence,polyreactivity (PSR sort gate)
1,QVQLVESGGGLVQAGGSLRLSCAASGSTFTPYAMGWYRQAPGKEREFVARISWTGGSTYYADSVKGRFTISRDIAKNTVYLQMNSLKPEDTAVYYCNADRYRWYDHGYYYWGQGTQVTVSS,high polyreactivity
2,QVQLVESGGGLVQAGGSLRLSCAASGSTFTPYVMGWYRQAPGKERELVAAIRRRGGSTYYADSVKGRFTISRDNAKNSVYLQMNSLKPEDTAVYYCATDWSWLSLKFDYWGQGTQVTVSS,high polyreactivity
3,QVQLVESGGGLVQAGGSLRLSCAASGSTFTQYVMGWYRQAPGKERDLVAAISDSGSTYYADSVKGRFTISRDNAKNTVYLQMNRLKPEDTAVYFCNADDVDFYYGYGYLDYDYWGQGTQVTVSS,low polyreactivity
4,QVQLVESGGGLVQAGGSLRLSCAASGSTFTRNAMGWYREAPGTERELVAAISFSGGSTYYADSVKGRFTISRDNAKNTVYLQMNSLKPEDTAVYYCATKVEYRYYYWGQGTQVTVSS,high polyreactivity
5,QVQLVESGGGLVQAGGSLRLSCAASGSTFTRNAMGWYRQAPGKERELVAAITSSGGSTYYADSVKGRFTISRDNAKITVYLQMNSLKPEDTAVYYCAAYPHRPRDRELDHWGQGTQVTVSS,low polyreactivity
6,QVQLVESGGGLVQAGGSLRLSCAASGSTFTRNAMGWYRQAPGKERELVAAITSSGGSTYYADSVKGRFTISRDNAKNTVYLQMNSLKPEDTAVYYCNADFRTYYDSEYDYWGQGTQVTVSS,low polyreactivity
7,QVQLVESGGGLVQAGGSLRLSCAASGSTFTRYAMGWNRQAPGKARELVAAINWSGTSTYYADSVKGRFTISRDNAMNTVYLQMNSLKPEATAVYYSNAYTVRSYRFDYWGQGTQVTVSS,high polyreactivity
8,QVQLVESGGGLVQAGGSLRLSCAASGSTFTRYAMGWYRQAPGKERELVAAISGGGSTNYADSVKGRFTISRDNANNTVYLQKNSLKPEVTAVYFCAARVRTTGYSQMYYWGQGTQVTVSS,low polyreactivity
9,QVQLVESGGGLVQAGGSLRLSCAASGSTFTRYAMGWYRQAPGKERELVAAISGGGSTNYADSVKGRFTISRDNSKNTVYLQMNSLKPEDTAVYYCAARVRTTGYSQMYYWGQGTQVTVSS,low polyreactivity
10,QVQLVESGGGLVQAGGSLRLSCAASGSTFTRYGMGRYRQAPGKERELVAAITTSGSSTYYADSVKGRFTISRDNAKNTVYLQMNSLKPEDTAVYYCAADWSSWGFDYWGQGTQVTVSS,low polyreactivity
11,QVQLVESGGGLVQAGGSLRLSCAASGSTFTSNTMGWCRQAPGKERELVAGITGAGSTNYADSVKGRFTISRDNEKNTVYLQMNSLKPEDTAVYYCAASVRWPRVSQRARYGYYYWGQGTQVAVSS,high polyreactivity
12,QVQLVESGGGLVQAGGSLRLSCAASGSTFTSYAMGWYRQAPGKERELVAGITSRGTSTYYADSVKGRFTISRDHAKNTVYLQMNSLKPEYTAVYYCAAVYLSYGPGSEDPLGYWGQGTQVTVSS,high polyreactivity
13,QVQLVESGGGLVQAGGSLRLSCAASGSTFTSYAMGWYRQAPGKERELVASIRSTSGRTYYADSVKGRFTISRDNAKNTVYLQMNSLKPEDTAVYYCAAATYGTWWTYADNPYDYWGQGTQVTVSS,high polyreactivity
14,QVQLVESGGGLVQAGGSLRLSCAASGSTFTTNAMGLYRQEPGKERELVAAITSTGSTYADSVKGRFTISRDNAMNTVYLQMNSLKPEDTAVYYCAADTQWTTPYDYWGQGTQVTVSS,low polyreactivity
15,QVQLVESGGGLVQAGGSLRLSCAASGSTFTTYAMRWYRQAPGKERELLAAITRGGGRTYYSDSVKGRFTISRDYAKNTVYLLMNSLKPEDTAVYYCNAGRSNSPCGRPYDYWGQGTQVTVSS,high polyreactivity
16,QVQLVESGGGLVQAGGSLRLSCAASGSTFTVNAMGWYRQAPGKERELVAAIRWSGDSTYYADSVKGRFTISRDNAKNTVYLQMNSLKPEDTAVYYCARDLYWGSYNYWGQGTQVTVSS,low polyreactivity
17,QVQLVESGGGLVQAGGSLRLSCAASGSTFTYNAMGWYRPAPGKERELVAAISYGGGRTYYADSVKGRFTISRDNAKNTVYLQMNSLKPEDTAVYYCAAGRSIGALYYGMDYWGQGTQVTVSS,high polyreactivity
18,QVQLVESGGGLVQAGGSLRLSCAASGSTFTYNAMGWYRQAPGKERELVAAIDRSVSTNYADSVKGRFTISRDNAKNTVYLQMNSLKPEDTAVYYCNARHPTDDIVIYDYWGQGTQVTVSS,low polyreactivity
19,QVQLVESGGGLVQAGGSLRLSCAASGSTFTYNAMGWYRQAPGKERELVAAISWSGGRTYYADSVKGRFTISRDNATNTVYLQMNSLKPEDTAVYSCAAKYRYSTYSFPYDYWGQGTQVTVSS,high polyreactivity
20,QVQLVESGGGLVQAGGSLRLSCAASGSTFTYYAMGWYRQAPGKERELVADISWDGGSTYYADSVKGRFTFSRDNAKNTVYLQMNSLKPEDTAVYYCATDLVYKYDYWGQGTQVTVSS,low polyreactivity
21,QVQLVESGGGLVQAGGSLRLSCAASGSTFTYYAMGWYRQAPGKERELVASITTSGGDTNYADSVKGRFTISRDNAKNTVYLQMNSLKPEDTAVYYCAADLYDPYHVYGYNYWGQGTQVTVSS,low polyreactivity

row,Sequence,polyreactivity (PSR sort gate)
1,QVQLVESGGGLVQAGGSLRLSCAASGSTFVDNAMGWYRQAPGKERELVAAINSTDITNYADSVKGRFTISRDNAKNTVYLQMNSLKPEDTAVYYCAKDLLKWRKYQWYYYWGQGTQVTVSS,low polyreactivity
2,QVQLVESGGGLVQAGGSLRLSCAASGSTFVDNAMGWYRQAPGKERELVAAISSSGGTTYYADSVKGRFTISRDNAKNTVYLQMNSLKPEDTAVYYCAARRRSGTYWRSANDYWGQGTQVTVSS,high polyreactivity
3,QVQLVESGGGLVQAGGSLRLSCAASGSTFVDNAMGWYRQAPGKERELVAAISTRGGTTYYADSVKGRFTISRDNAKNTVYLQMNSLKPEDTAVYYCAADYYDSGWYGYWGQGTQVTVSS,high polyreactivity
4,QVQLVESGGGLVQAGGSLRLSCAASGSTFVDNAMGWYRQAPGKERELVADITWSGGSTYYADSVKGRFTISRDNAKNTVYLQMNSLKPEDTAVYYCAKVPKSRGYVGGMDYWGQGTQVTVSS,low polyreactivity
5,QVQLVESGGGLVQAGGSLRLSCAASGSTFVDNAMGWYRQAPGKEREMVAAIRYGSGGSTRYADSVKGRFTISRDNAKNTVYLQMNSLKPEDTAVYYCAADGYITVNYLRYDYWGQGTQVTVSS,low polyreactivity
6,QVQLVESGGGLVQAGGSLRLSCAASGSTFVDNLMGWYRQSPGKERELVAAIDFSTGSTYYADSVKGRFTISRDNAKNTVYLQMNSLKPDDTAVYYCNAKYYSWDWSSFNYWGQGTQVTVSS,low polyreactivity
7,QVQLVESGGGLVQAGGSLRLSCAASGSTFVDYAMGWYRQAPGKERELVAAINRSGGRTYYADSVKGRFTISRDNAKNTVYLQMNSLKPEDTAVYYCAAKNPQPDEHGYWGQGTQVTVSS,high polyreactivity
8,QVQLVESGGGLVQAGGSLRLSCAASGSTFVFYAMGWYRQAPGKERELVAAISRSGGSTYYADSVKGRFTISRDNAKNTVYLQMNSLKPEDTAVYYCNAVRFYRYGWGQGTQVTVSS,high polyreactivity
9,QVQLVESGGGLVQAGGSLRLSCAASGSTFVFYAMGWYRQAPGKERELVATISSGGSTYADSVKGRFTISRDNAKNTVYLQMYSLKPEDTAVYYCAADSLFGHYDYWGQGTQVTVSS,low polyreactivity
10,QVQLVESGGGLVQAGGSLRLSCAASGSTFVGNAMGWYRQAPGKERELVAAISRGGGRTYYADSVKGRFTISRDNAKNTVYLQMNSLKPEDTAVYYCNADVYHRAWHLDYWGQGTQVTVSS,high polyreactivity
11,QVQLVESGGGLVQAGGSLRLSCAASGSTFVGYAMGWYRPAPGKDRELFAAITRGGGSTYYADSVKWRFTISRDNAKNTVYLQINSLKPEDTAVYYCAAYQHPGLRTSYEYWGQGTQVTVSS,low polyreactivity
12,QVQLVESGGGLVQAGGSLRLSCAASGSTFVGYAMGWYRQAPGKERELVAAISERGGRTYYADSVKGRFTISRDNAKNTVYLQMNSLKPEDTAVYYCAAYGRYPRLYTYYYWGQGTQVTVSS,high polyreactivity
13,QVQLVESGGGLVQAGGSLRLSCAASGSTFVGYAMGWYRQAPGKERELVAAISSSGSTNYADSVKGRFTISRDNAKNTVYLQMNSLKPEDTAVYYCAALYSYFWLIIDYGYWGQGTQVTVSS,low polyreactivity
14,QVQLVESGGGLVQAGGSLRLSCAASGSTFVGYAMGWYRQAPGKERELVADIDSIGGSTYYADSVNGRFTISRDNAKNTVYLQMNSLKPEDTAVYYCAARRFDTALVLYDYWGQGTQVTVSS,low polyreactivity
15,QVQLVESGGGLVQAGGSLRLSCAASGSTFVGYAMGWYRQAPGKEREVVAAISGSGTSTYYADSVKGRFTISRDNAKNTVYLQMNSLKPEDTAVYYCNSDPIFVYSSYNYWGQGTQVTVSS,low polyreactivity
16,QVQLVESGGGLVQAGGSLRLSCAASGSTFVGYAMGWYRQAPGKVRELVADITSGGGITYYADSVKGRFTISRDNAKNTVYLQMNSLKPDDTAVYYCAPGRPRPHWWSLDYYYWGQGTQVTVSS,low polyreactivity
17,QVQLVESGGGLVQAGGSLRLSCAASGSTFVGYVMGWYRQAPGKERELVAAITRSGTSTYYADSVKGRFTISRDNAKNTVYLQMNSLKPEDTAVYYCALRYVSSDYYYWGQGTQVTVSS,low polyreactivity
18,QVQLVESGGGLVQAGGSLRLSCAASGSTFVHYDMGWYRQAPGKERELVAGSTTGGSTNYADSVKGRFTISRDNAKNTVYLQMNSLKPEDTAVYYCNADSYPNLVPDYLYYWYEYWGQGTQVTVSS,low polyreactivity
19,QVQLVESGGGLVQAGGSLRLSCAASGSTFVHYGMGWYRQAPGKERELVAAISYSGGSTSYADSVKGRFTISRDNAKNTVYLQMNSLKPEDTAVYYCATVRKRRYDYWGQGTQVTVSS,low polyreactivity
20,QVQLVESGGGLVQAGGSLRLSCAASGSTFVIYAMGWYRQAPGKERELVASIRGRTGSTYYADSVKGRFTISRDNAKNTVYSQLNSLKPEDTAVYYCAAKPGYKSKMDYWGQGTQVTVSS,high polyreactivity

# Source: the nanobody polyreactivity screen of Harvey et al. (2022)
